Measured values published in doi:10.1101/2024.10.21.619419 (bioRxiv, 2024).

Target: the molecule itself
Experiment: SEC

B1: Bxb1 residues 2-500 (enzyme, Mycobacteriophage Bxb1, UniProt Q9B086 2-500, looked up)
chain: RALVVIRLSRVTDATTSPERQLESCQQLCAQRGWDVVGVAEDLDVSGAVDPFDRKRRPNLARWLAFEEQPFDVIVAYRVDRLTRSIRHLQQLVHWAEDHKKLVVSATEAHFDTTTPFAAVVIALMGTVAQMELEAIKERNRSAAHFNIRAGKYRGSLPPWGYLPTRVDGEWRLVPDPVQRERILEVYHRVVDNHEPLHLVAHDLNRRGVLSPKDYFAQLQGREPQGREWSATALKRSMISEAMLGYATLNGKTVRDDDGAPLVRAEPILTREQLEALRAELVKTSRAKPAVSTPSLLLRVLFCAVCGEPAYKFAGGGRKHPRYRCRSMGFPKHCGNGTVAMAEWDAFCEEQVLDLLGDAERLEKVWVAGSDSAVELAEVNAELVDLTSLIGSPAYRAGSPQREALDARIAALAARQEELEGLEARPSGWEWRETGQRFGDWWREQDTAAKNTWLRSMNVRLTFDVRGGLTRTIDFGDLQEYEQHLRLGSVVERLHTGMS
stoichiometry N: 2
